Source: paper PMC12713088, “Arabidopsis TRB Proteins Form Two Closely Related Complexes to Mediate H3K4me3 Demethylation and Transcriptional Repression” (Advanced Science, 2025)

Key:
[1] = target: T1, NAC050-N (Arabidopsis thaliana, UniProt Q9SQX9 1-184); assay: EMSA; EMSA: 10 mM Tris-HCl pH 7.5, 50 mM NaCl, 1 mM EDTA, 5% glycerol, 1 mM DTT, 25 C, 30 min, 20 ng DNA + 1 ug protein; ITC: 20 mM Tris-HCl pH 7.5, 150 mM NaCl, 25 C, 5 uM protein, 100 uM DNA; settings: protein: recombinant; tags: MBP; chain copies: 2; label: Cy5 at 5' of strand 1; blunt
T1 sequence: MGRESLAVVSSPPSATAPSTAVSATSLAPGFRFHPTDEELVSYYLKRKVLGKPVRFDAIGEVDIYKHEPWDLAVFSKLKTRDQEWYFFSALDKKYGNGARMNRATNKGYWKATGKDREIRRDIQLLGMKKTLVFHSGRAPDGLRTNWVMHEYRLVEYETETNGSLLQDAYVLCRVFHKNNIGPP

[2] = target: T2, TRB1;NAC050-N (Arabidopsis thaliana;Arabidopsis …, UniProt Q8VWK4;Q9SQX9 1-300;1-184, |); assay: EMSA; TRB1 added to NAC050-N; larger complex; EMSA: 10 mM Tris-HCl pH 7.5, 50 mM NaCl, 1 mM EDTA, 5% glycerol, 1 mM DTT, 25 C, 30 min, 20 ng DNA + 1 ug protein; ITC: 20 mM Tris-HCl pH 7.5, 150 mM NaCl, 25 C, 5 uM protein, 100 uM DNA; settings: protein: recombinant;recombinant; tags: His;MBP; label: Cy5 at 5' of strand 1; blunt
T2 sequence 1: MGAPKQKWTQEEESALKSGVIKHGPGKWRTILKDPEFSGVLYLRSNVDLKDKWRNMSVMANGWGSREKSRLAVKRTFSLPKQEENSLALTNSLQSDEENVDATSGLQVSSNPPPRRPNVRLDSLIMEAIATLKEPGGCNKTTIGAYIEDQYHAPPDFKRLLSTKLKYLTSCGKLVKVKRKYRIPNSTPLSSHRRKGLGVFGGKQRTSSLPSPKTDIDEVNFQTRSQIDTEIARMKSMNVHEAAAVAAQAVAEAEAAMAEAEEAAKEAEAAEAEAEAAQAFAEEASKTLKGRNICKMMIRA
T2 sequence 2: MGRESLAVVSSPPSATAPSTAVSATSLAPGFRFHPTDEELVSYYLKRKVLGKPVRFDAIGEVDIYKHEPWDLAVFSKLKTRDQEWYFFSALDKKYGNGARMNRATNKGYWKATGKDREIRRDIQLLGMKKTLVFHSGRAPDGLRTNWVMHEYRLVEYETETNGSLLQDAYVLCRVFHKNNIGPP

B1: Probe 2 (P2) (dsDNA)
DNA 1: GACGCTTGAGCCTCAAGAAAT
DNA 2: ATTTCTTGAGGCTCAAGCGTC
**Q.** Does B1 bind [1]?
**A.** binds

**Q.** Does B1 bind [2]?
**A.** binds
